From patent US20220306695A1, “COMPSTATIN ANALOGUES AND THEIR MEDICAL USES” (priority 2019, published 2022) come the findings set out here.

Series [1] has as its system classical complement pathway. In words: In vitro haemolysis assay (inhibition of classical complement pathway). The format is cell-based, human. The conditions noted are these: Table 3; human serum, sensitized sheep red blood cells; read-out: IC50[nM], in vitro analysis of inhibition of hemolysis. The gist of the method:
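Serially diluted compound (9 points) was preincubated 15 min at room temperature with diluted human serum, titrated per batch to give 70-90% maximal haemolysis, in Tris/casein buffer pH 7.4 with Mg2+/Ca2+. Antibody-sensitized sheep erythrocytes were then added for 30 min at 37° C, and the reaction was stopped with EDTA. Haemolysis was read at A405, with IC50 from 4PL fit.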

Series [2] is classed as physicochemical. Conditions: 50 mg/mL peptide. The protocol:
Chemical stability of compstatin analogues with cystathionine or disulfide bridge. Stability was assessed in three formulations at 50 mg/mL peptide, F1:20 mM phosphate pH 5.5, F2:20 mM phosphate pH 6.5 and F3:20 mM phosphate pH 7.5. The formulations were prepared by direct dissolution of peptide from lyophilized portions in the respective formulations. pH was adjusted to target with 1 M NaOH and 1 M HCl. Chemical stability was assessed under accelerated conditions (14 days, 40° C.) and evaluated as change in purity by reverse phase HPLC, and change in covalent oligomer content by denaturing SEC. The formulations were placed at 40° C. with analysis points at T=0, 7 and 14 days. On each time point a small volume was extracted and diluted to 2 mg/mL and tested by reverse phase HPLC and denaturing SEC. Purity was assessed by reverse phase HPLC using an Ultimate 3000 system for binary gradient application equipped with a Kinetix C18 column (cat. no. 00F-4462-Y0, 150 mm×3 mm, 2.6 μm) run at 0.5 ml/min with a gradient of buffer A (0.3% TFA, aq.) and buffer B (0.3% TFA, 90% MeCN, aq.) gradient from 40% B to 70% B over 20 min. Detection was done using a diode array detector set to 220 nm. Covalent oligomer formation was assessed by denaturing SEC (size exclusion chromatography) using an Ultimate 3000 system equipped with a TSKgel SuperSW 2000 column (cat. no. 818674, 300 mm×3 mm, 4 μm) run at 0.5 ml/min with isocratic flow of buffer A (0.1% TFA, 45% MeCN, aq.), 10 min. Detection was done using a diode array detector set to 215 nm. Compounds 126 and 156 were carefully weighed out and dissolved in formulations F1, F2 and F3 to a target concentration of 50 mg/mL. Once visually dissolved, concentration was confirmed by absorbance at 280 nm, and samples were placed in stability at 40° C. Samples for analysis were extracted on T=0, 7 and 14 days from a 40° C. climate chamber. The extracted volume was dissolved 1:25 (final concentration: 2 mg/mL) in 20 mM phosphate pH 5.5, 6.5 or 7.5 and measured by reverse phase HPLC and denaturing SEC by injection of 0.4 μL (column load […]). The resulting chromatograms were integrated to determine chemical purity by reverse phase HPLC and covalent oligomer content by denaturing SEC.

For the next series, the target named is Human C3 (human, UniProt P01024 23-1663). In words: cell-based or functional assay.
Chain of Human C3 (P01024 23-1663 limits assumed): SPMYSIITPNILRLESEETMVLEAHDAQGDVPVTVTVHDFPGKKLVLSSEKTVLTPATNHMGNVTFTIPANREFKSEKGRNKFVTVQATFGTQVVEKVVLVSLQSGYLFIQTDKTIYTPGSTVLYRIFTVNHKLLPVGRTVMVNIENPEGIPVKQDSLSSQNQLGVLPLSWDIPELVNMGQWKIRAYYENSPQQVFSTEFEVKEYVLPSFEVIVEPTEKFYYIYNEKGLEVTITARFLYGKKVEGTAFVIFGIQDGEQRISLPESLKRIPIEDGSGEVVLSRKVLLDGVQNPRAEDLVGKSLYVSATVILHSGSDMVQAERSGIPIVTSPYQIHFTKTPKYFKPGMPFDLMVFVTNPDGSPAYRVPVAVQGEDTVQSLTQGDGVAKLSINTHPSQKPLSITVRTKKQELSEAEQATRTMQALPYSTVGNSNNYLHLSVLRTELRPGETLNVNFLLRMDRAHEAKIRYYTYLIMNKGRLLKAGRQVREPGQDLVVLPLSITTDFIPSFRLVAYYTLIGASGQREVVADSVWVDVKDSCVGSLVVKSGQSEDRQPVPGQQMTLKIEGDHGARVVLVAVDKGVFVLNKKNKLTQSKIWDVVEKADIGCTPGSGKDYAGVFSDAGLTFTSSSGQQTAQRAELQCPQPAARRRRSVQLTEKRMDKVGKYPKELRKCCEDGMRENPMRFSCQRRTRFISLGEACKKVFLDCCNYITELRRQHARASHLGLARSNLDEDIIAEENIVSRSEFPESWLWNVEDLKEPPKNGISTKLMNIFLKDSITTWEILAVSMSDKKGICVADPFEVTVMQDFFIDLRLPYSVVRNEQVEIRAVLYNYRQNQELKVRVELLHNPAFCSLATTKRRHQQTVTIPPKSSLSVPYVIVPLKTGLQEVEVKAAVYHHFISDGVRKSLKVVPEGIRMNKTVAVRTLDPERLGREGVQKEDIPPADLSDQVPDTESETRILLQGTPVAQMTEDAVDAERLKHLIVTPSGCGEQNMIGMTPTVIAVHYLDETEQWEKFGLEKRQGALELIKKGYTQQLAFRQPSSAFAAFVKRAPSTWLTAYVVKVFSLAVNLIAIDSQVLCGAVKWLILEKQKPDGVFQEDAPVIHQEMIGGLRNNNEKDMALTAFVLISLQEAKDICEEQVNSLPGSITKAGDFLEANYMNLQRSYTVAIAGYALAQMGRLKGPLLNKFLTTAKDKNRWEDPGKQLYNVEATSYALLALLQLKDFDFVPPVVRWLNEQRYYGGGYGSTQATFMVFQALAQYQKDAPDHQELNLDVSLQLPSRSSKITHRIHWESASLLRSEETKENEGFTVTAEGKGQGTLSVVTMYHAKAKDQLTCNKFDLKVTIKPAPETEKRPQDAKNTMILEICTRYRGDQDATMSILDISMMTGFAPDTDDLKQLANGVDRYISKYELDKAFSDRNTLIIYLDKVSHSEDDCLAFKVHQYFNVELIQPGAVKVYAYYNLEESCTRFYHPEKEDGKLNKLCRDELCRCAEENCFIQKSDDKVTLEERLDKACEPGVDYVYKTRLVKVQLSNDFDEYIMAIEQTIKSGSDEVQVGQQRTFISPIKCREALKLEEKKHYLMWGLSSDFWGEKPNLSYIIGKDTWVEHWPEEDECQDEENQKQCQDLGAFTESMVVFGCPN

Where two headings read alike, the source gives them in different places. Starred links: 1 amine or outer side, 2 acyl side, 3 side chain; linkers in the order of their positions; H or OH if unused. Positions of bridges follow the written chain, without caps; N, C: chain ends. Non-standard residues stand in square brackets, D forms with d. Residues, ends and D or L forms follow the SMILES beside them. Groups on a side chain read outwards from the residue. *: point of attachment. Trp(1-Me) = Cn1cc(C[C@H](N)C(=O)O)c2ccccc21; Abu(4-yl) = O=C([C@H](CC[*:3])N[*:1])[*:2]; C18 diacid = O=C(O)CCCCCCCCCCCCCCCCC(=O)*; C16 diacid = O=C(O)CCCCCCCCCCCCCCC(=O)*; γGlu = O=C(O)[C@H](CCC(=O)[*:2])N[*:1]; AEEA = NCCOCCOCC(=O)O; Sar = CNCC(=O)O

In the case of `CC[C@H](C)[C@@H]1NC(=O)[C@@H](NC(=O)[C@H](Cc2ccccc2)NC(=O)[C@H](CCC(=O)O)NC(=O)[C@H](CO)NC(C)=O)CSCC[C@@H](C(=O)N[C@H](C(=O)N[C@@H](CCC(=O)O)C(=O)NCC(=O)N[C@@H](CCC(=O)O)C(=O)NCCOCCOCC(=O)NCCOCCOCC(=O)N[C@@H](CCCCNC(=O)CC[C@H](NC(=O)CNC(=O)CC[C@H](NC(=O)CCCCCCCCCCCCCCCCC(=O)O)C(=O)O)C(=O)O)C(N)=O)[C@@H](C)O)NC(=O)[C@H](CCCNC(=N)N)NC(=O)[C@H](Cc2c[nH]cn2)NC(=O)[C@H](CCC(=O)O)NC(=O)CNC(=O)[C@H](Cc2c[nH]c3ccccc23)NC(=O)[C@H](CC(=O)O)NC(=O)[C@H](CCC(N)=O)NC(=O)[C@H](Cc2cn(C)c3ccccc23)NC1=O` [Compound 156, Ac-SEFA(1)I[1-Me-Trp]QDWGEHRhC(1)TEGE[Peg3][Peg3]-K([17-carboxy-heptadecanoyl][γGlu]G[γGlu])-NH2] (Ac-SEFCI[Trp(1-Me)]QDWGEHR[Abu(4-yl)]TEGE[AEEA][AEEA]K([γGlu-Gly-γGlu-C18 diacid])-NH2; thioether 4-14), in series [1], the IC50 (in general, the point on the concentration scale where inhibition reaches its midpoint) is under 100 nM. Also, the “Covalent oligomer content after 14 days 40° C. (%), F1” value in series [2] (F1: 20 mM phosphate pH 5.5, denaturing SEC) came to 1.1%. Further, the “Purity after 14 days 40° C. (%), F1” value in series [2] (F1: 20 mM phosphate pH 5.5, normalized purity (HPLC)) was 92%. The “Covalent oligomer content after 14 days 40° C. (%), F2” value in series [2] (F2: 20 mM phosphate pH 6.5, denaturing SEC) is on record as 0.5%; in series [2] (F3: 20 mM phosphate pH 7.5, denaturing SEC), 1.1%. The “Purity after 14 days 40° C. (%), F2” value in series [2] (F2: 20 mM phosphate pH 6.5, normalized purity (HPLC)) is listed as 96%. Also, in series [2] (F3: 20 mM phosphate pH 7.5, normalized purity (HPLC)), the “Purity after 14 days 40° C. (%), F3” value was found to be 95%.

B1: Compound 75 (peptide)
peptide: Ac-SEFCI[Trp(1-Me)]QDWGEHRC[Sar]EA-NH2
modifications: disulfide 4-14
SMILES: CC[C@H](C)[C@@H]1NC(=O)[C@@H](NC(=O)[C@H](Cc2ccccc2)NC(=O)[C@H](CCC(=O)O)NC(=O)[C@H](CO)NC(C)=O)CSSC[C@@H](C(=O)N(C)CC(=O)N[C@@H](CCC(=O)O)C(=O)N[C@@H](C)C(N)=O)NC(=O)[C@H](CCCNC(=N)N)NC(=O)[C@H](Cc2c[nH]cn2)NC(=O)[C@H](CCC(=O)O)NC(=O)CNC(=O)[C@H](Cc2c[nH]c3ccccc23)NC(=O)[C@H](CC(=O)O)NC(=O)[C@H](CCC(N)=O)NC(=O)[C@H](Cc2cn(C)c3ccccc23)NC1=O
On to B1, for which the “IC50[nM], inhibition of hemolysis” value with Human C3 was under 100 nM.

B2: Compound 82 (peptide)
peptide: Ac-SE[Sar]CI[Trp(1-Me)]QDWGEHRCTEA-NH2
modifications: disulfide 4-14
SMILES: CC[C@H](C)[C@@H]1NC(=O)[C@@H](NC(=O)CN(C)C(=O)[C@H](CCC(=O)O)NC(=O)[C@H](CO)NC(C)=O)CSSC[C@@H](C(=O)N[C@H](C(=O)N[C@@H](CCC(=O)O)C(=O)N[C@@H](C)C(N)=O)[C@@H](C)O)NC(=O)[C@H](CCCNC(=N)N)NC(=O)[C@H](Cc2c[nH]cn2)NC(=O)[C@H](CCC(=O)O)NC(=O)CNC(=O)[C@H](Cc2c[nH]c3ccccc23)NC(=O)[C@H](CC(=O)O)NC(=O)[C@H](CCC(N)=O)NC(=O)[C@H](Cc2cn(C)c3ccccc23)NC1=O
B2: the “IC50[nM], inhibition of hemolysis” value in the series with Human C3 was under 100 nM.

B3: Compound 51 (peptide)
peptide: Ac-ICI[Trp(1-Me)]QDWGEHRCTGAES-NH2
modifications: disulfide 2-12
SMILES: CC[C@H](C)[C@H](NC(C)=O)C(=O)N[C@H]1CSSC[C@@H](C(=O)N[C@H](C(=O)NCC(=O)N[C@@H](C)C(=O)N[C@@H](CCC(=O)O)C(=O)N[C@@H](CO)C(N)=O)[C@@H](C)O)NC(=O)[C@H](CCCNC(=N)N)NC(=O)[C@H](Cc2c[nH]cn2)NC(=O)[C@H](CCC(=O)O)NC(=O)CNC(=O)[C@H](Cc2c[nH]c3ccccc23)NC(=O)[C@H](CC(=O)O)NC(=O)[C@H](CCC(N)=O)NC(=O)[C@H](Cc2cn(C)c3ccccc23)NC(=O)[C@H]([C@@H](C)CC)NC1=O
On to B3, for which the “IC50[nM], inhibition of hemolysis” value with Human C3 is under 100 nM.

B4: Compound 66 (peptide)
peptide: Ac-YCIWQDWGEHRCTGAES-NH2
modifications: disulfide 2-12
SMILES: CC[C@H](C)[C@@H]1NC(=O)[C@@H](NC(=O)[C@H](Cc2ccc(O)cc2)NC(C)=O)CSSC[C@@H](C(=O)N[C@H](C(=O)NCC(=O)N[C@@H](C)C(=O)N[C@@H](CCC(=O)O)C(=O)N[C@@H](CO)C(N)=O)[C@@H](C)O)NC(=O)[C@H](CCCNC(=N)N)NC(=O)[C@H](Cc2c[nH]cn2)NC(=O)[C@H](CCC(=O)O)NC(=O)CNC(=O)[C@H](Cc2c[nH]c3ccccc23)NC(=O)[C@H](CC(=O)O)NC(=O)[C@H](CCC(N)=O)NC(=O)[C@H](Cc2c[nH]c3ccccc23)NC1=O
As to B4, in the series with Human C3, the “IC50[nM], inhibition of hemolysis” value was under 100 nM.

B5: Compound 62 (peptide)
peptide: Ac-YCI[Trp(1-Me)]QDWGEHRCTGAES-NH2
modifications: disulfide 2-12
SMILES: CC[C@H](C)[C@@H]1NC(=O)[C@@H](NC(=O)[C@H](Cc2ccc(O)cc2)NC(C)=O)CSSC[C@@H](C(=O)N[C@H](C(=O)NCC(=O)N[C@@H](C)C(=O)N[C@@H](CCC(=O)O)C(=O)N[C@@H](CO)C(N)=O)[C@@H](C)O)NC(=O)[C@H](CCCNC(=N)N)NC(=O)[C@H](Cc2c[nH]cn2)NC(=O)[C@H](CCC(=O)O)NC(=O)CNC(=O)[C@H](Cc2c[nH]c3ccccc23)NC(=O)[C@H](CC(=O)O)NC(=O)[C@H](CCC(N)=O)NC(=O)[C@H](Cc2cn(C)c3ccccc23)NC1=O
Regarding B5, the “IC50[nM], inhibition of hemolysis” value in the series with Human C3 was under 100 nM.

B6: Compound 55 (peptide)
peptide: Ac-EGSAICIWQDWGEHRCTE-NH2
modifications: disulfide 6-16
SMILES: CC[C@H](C)[C@H](NC(=O)[C@H](C)NC(=O)[C@H](CO)NC(=O)CNC(=O)[C@H](CCC(=O)O)NC(C)=O)C(=O)N[C@H]1CSSC[C@@H](C(=O)N[C@H](C(=O)N[C@@H](CCC(=O)O)C(N)=O)[C@@H](C)O)NC(=O)[C@H](CCCNC(=N)N)NC(=O)[C@H](Cc2c[nH]cn2)NC(=O)[C@H](CCC(=O)O)NC(=O)CNC(=O)[C@H](Cc2c[nH]c3ccccc23)NC(=O)[C@H](CC(=O)O)NC(=O)[C@H](CCC(N)=O)NC(=O)[C@H](Cc2c[nH]c3ccccc23)NC(=O)[C@H]([C@@H](C)CC)NC1=O
Turning to B6, the “IC50[nM], inhibition of hemolysis” value with Human C3 was under 250 nM.

B7: Compound 93 (peptide)
peptide: Ac-ICIWQDWGEHRCTEGK([AEEA-AEEA-γGlu-C16 diacid])-NH2
modifications: disulfide 2-12
SMILES: CC[C@H](C)[C@H](NC(C)=O)C(=O)N[C@H]1CSSC[C@@H](C(=O)N[C@H](C(=O)N[C@@H](CCC(=O)O)C(=O)NCC(=O)N[C@@H](CCCCNC(=O)COCCOCCNC(=O)COCCOCCNC(=O)CC[C@H](NC(=O)CCCCCCCCCCCCCCC(=O)O)C(=O)O)C(N)=O)[C@@H](C)O)NC(=O)[C@H](CCCNC(=N)N)NC(=O)[C@H](Cc2c[nH]cn2)NC(=O)[C@H](CCC(=O)O)NC(=O)CNC(=O)[C@H](Cc2c[nH]c3ccccc23)NC(=O)[C@H](CC(=O)O)NC(=O)[C@H](CCC(N)=O)NC(=O)[C@H](Cc2c[nH]c3ccccc23)NC(=O)[C@H]([C@@H](C)CC)NC1=O
As for B7, the “IC50[nM], inhibition of hemolysis” value in the series with Human C3 is under 500 nM.

B8: Compound 92 (peptide)
peptide: Ac-ICIWQDWGEHRCTEGK([γGlu-C16 diacid])-NH2
modifications: disulfide 2-12
SMILES: CC[C@H](C)[C@H](NC(C)=O)C(=O)N[C@H]1CSSC[C@@H](C(=O)N[C@H](C(=O)N[C@@H](CCC(=O)O)C(=O)NCC(=O)N[C@@H](CCCCNC(=O)CC[C@H](NC(=O)CCCCCCCCCCCCCCC(=O)O)C(=O)O)C(N)=O)[C@@H](C)O)NC(=O)[C@H](CCCNC(=N)N)NC(=O)[C@H](Cc2c[nH]cn2)NC(=O)[C@H](CCC(=O)O)NC(=O)CNC(=O)[C@H](Cc2c[nH]c3ccccc23)NC(=O)[C@H](CC(=O)O)NC(=O)[C@H](CCC(N)=O)NC(=O)[C@H](Cc2c[nH]c3ccccc23)NC(=O)[C@H]([C@@H](C)CC)NC1=O
For the molecule B8, the “IC50[nM], inhibition of hemolysis” value with Human C3 is under 1000 nM.
